In the supplement of paper PMC10126150:
± gives the standard deviation of the averaged measurements.

Tested on: ATP
Assay: switch fluorescence ratio, 500 uM ATP over buffer (Cy3 cluster intensity, sum of 5 cycles each) (fold (ratio)); higher = stronger signal-on switching upon ATP binding; sequences stand for … in TCGTCGGCAGCGTCAGATGTGTATAAGAGACAGTTTTTTTTTTTTTTTTTTTTTTTTT…TC
Conditions: aptamer strand: ATP DNA aptamer (quencher-CACCTGGGGGAGTATTGCGGAGGAAGG + anchor), 100 nM annealed; ATP concentration: 500 uM
How it was run: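 The quencher-labelled ATP aptamer, at 100 nM, was annealed to Cy3-labelled switching-strand clusters on a modified Illumina MiSeq flow-cell. The clusters were imaged in selection buffer, then after 15 min with 500 uM ATP at 22 °C, and this buffer/ATP cycle ran five times with NaOH stripping and re-annealing between runs. Per-cluster fluorescence ratios, summed target-cycle over summed buffer-cycle Cy3 intensity, were averaged per switch-domain sequence. Clusters outside 100-1000 RFU were excluded.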
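Further: ATP exposure 15 min at 22 °C before imaging.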

Sequence | switch fluorescence ratio
AAGGCTGAGT | 1 ± 0.0011
AAGGCTGGCT | 0.99 ± 0.027
AAGGCTGTAC | 1.71 ± 0.1
AAGGCTGTCT | 1.02 ± 0.049
AAGGCTTCGG | 0.998 ± 0.032
AAGGCTTTCT | 1.02 ± 0.032
AAGGGAAATT | 0.983 ± 0.025
AAGGGAATGA | 0.987 ± 0.016
AAGGGACAGC | 1.03 ± 0.021
AAGGGACATT | 1.01 ± 0.012
AAGGGACTCG | 1.04 ± 0.059
AAGGGAGCAA | 1.09 ± 0.037
AAGGGAGTCA | 0.992 ± 0.031
AAGGGATTCT | 1.03 ± 0.084
AAGGGATTTA | 1.04 ± 0.034
AAGGGCAACG | 0.974 ± 0.063
AAGGGCGATT | 1.02 ± 0.055
AAGGGCGTGG | 0.982 ± 0.02
AAGGGCTATT | 1 ± 0.029
AAGGGCTCAA | 1.02 ± 0.011
AAGGGCTTAC | 1.135 ± 0.0058
AAGGGCTTTT | 1.01 ± 0.036
AAGGGGAATT | 1.01 ± 0.049
AAGGGGACGA | 0.978 ± 0.033
AAGGGGAGGG | 1 ± 0.013
AAGGGGATCG | 1.03 ± 0.027

Sequence | switch fluorescence ratio
AAGGGGATTT | 0.975 ± 0.016
AAGGGGCAAT | 1.01 ± 0.055
AAGGGGCGCT | 1.01 ± 0.039
AAGGGGCTTA | 0.961 ± 0.013
AAGGGGGAAC | 1.002 ± 0.0052
AAGGGGGCTT | 0.9943 ± 0.0025
AAGGGGGGGG | 1.02 ± 0.055
AAGGGGGGTC | 0.991 ± 0.042
AAGGGGGGTG | 1.03 ± 0.048
AAGGGGGTCT | 1.02 ± 0.083
AAGGGGGTTT | 1 ± 0.036
AAGGGGTATC | 1.02 ± 0.05
AAGGGGTCTG | 0.979 ± 0.02
AAGGGGTTGA | 1.01 ± 0.023
AAGGGGTTTC | 0.9746 ± 0.0067
AAGGGTGATG | 1 ± 0.049
AAGGGTGGGT | 0.9876 ± 0.0045
AAGGGTTGCT | 1.01 ± 0.042
AAGGGTTGTC | 0.999 ± 0.088
AAGGGTTTAC | 0.995 ± 0.035
AAGGGTTTAG | 1 ± 0.067
AAGGTAAGAG | 0.999 ± 0.037
AAGGTAAGGT | 1 ± 0.023
AAGGTAGGCG | 0.987 ± 0.011
AAGGTAGTCT | 1 ± 0.024
AAGGTATGTC | 1.01 ± 0.063

Sequence | switch fluorescence ratio
AAGGTATGTG | 1.025 ± 0.0038
AAGGTCGCGG | 1 ± 0.017
AAGGTCGTCA | 0.9613 ± 0.0023
AAGGTGCAAG | 1.03 ± 0.053
AAGGTGGATG | 0.992 ± 0.021
AAGGTGGGAC | 1.02 ± 0.021
AAGGTGGGTA | 0.99 ± 0.031
AAGGTGGGTG | 0.999 ± 0.029
AAGGTGTAGC | 0.9839 ± 0.0091
AAGGTGTCGA | 0.967 ± 0.019
AAGGTGTGTT | 1.08 ± 0.068
AAGGTGTTTC | 1.083 ± 0.0066
AAGGTTCCTG | 0.98 ± 0.03
AAGGTTGCGT | 0.986 ± 0.04
AAGGTTTCAT | 1 ± 0.031
AAGGTTTCGG | 0.985 ± 0.038
AAGGTTTTAA | 0.9825 ± 0.0066
AAGGTTTTTG | 1 ± 0.03
AAGTAAGTTG | 0.9806 ± 0.0064
AAGTACAGCG | 1.03 ± 0.026
AAGTACGAGG | 1.27 ± 0.17
AAGTACGCTG | 1 ± 0.11
AAGTACGGTG | 1.19 ± 0.089
AAGTAGCGCT | 1 ± 0.024
AAGTAGCTAT | 1.01 ± 0.043
AAGTAGGAGT | 0.994 ± 0.034

Sequence | switch fluorescence ratio
AAGTAGGGGC | 1.02 ± 0.015
AAGTAGGGTA | 1.03 ± 0.025
AAGTAGTGCG | 1.01 ± 0.041
AAGTAGTTTT | 0.985 ± 0.024
AAGTATAAGG | 0.994 ± 0.011
AAGTATATGA | 1.004 ± 0.0083
AAGTATATTT | 1.001 ± 0.0047
AAGTATGGGG | 0.978 ± 0.021
AAGTATGTTC | 1.004 ± 0.0014
AAGTATTTAG | 0.994 ± 0.024
AAGTATTTTT | 1.018 ± 0.0058
AAGTCAGGGG | 1.05 ± 0.13
AAGTCATGGG | 1.01 ± 0.031
AAGTCCGGGA | 0.998 ± 0.035
AAGTCCGGGC | 1.02 ± 0.018
AAGTCGGATA | 1 ± 0.028
AAGTCTTTCG | 1.01 ± 0.012
AAGTGCGGGC | 1.04 ± 0.027
AAGTGCTACC | 1.02 ± 0.06
AAGTGCTGTG | 0.996 ± 0.029
AAGTGGAGTC | 1.05 ± 0.085
AAGTGGCCGG | 0.961 ± 0.074
AAGTGGGAAT | 1.02 ± 0.013
AAGTGGGGG | 0.992 ± 0.016
AAGTGGGGTG | 0.982 ± 0.019
AAGTGGGTAT | 1.16 ± 0.23

Sequence | switch fluorescence ratio
AAGTGGTTAG | 0.98 ± 0.027
AAGTGTGGGT | 1 ± 0.075
AAGTGTTATT | 0.992 ± 0.026
AAGTTAATGG | 1.015 ± 0.0071
AAGTTACAGT | 1.04 ± 0.036
AAGTTAGGTC | 0.969 ± 0.047
AAGTTATAAC | 0.956 ± 0.067
AAGTTCACGT | 0.996 ± 0.02
AAGTTCGTTT | 0.986 ± 0.026
AAGTTGAAGG | 1 ± 0.013
AAGTTGAGGA | 0.978 ± 0.016
AAGTTGAGTG | 0.9472 ± 0.0088
AAGTTGCGGA | 0.975 ± 0.019
AAGTTGGGAG | 1 ± 0.019
AAGTTGGGTT | 0.9633 ± 0.0079
AAGTTGTCAA | 1.011 ± 0.0052
AAGTTGTGAC | 0.997 ± 0.028
AAGTTTAGGG | 0.996 ± 0.027
AAGTTTATCT | 0.989 ± 0.02
AAGTTTCACG | 1 ± 0.058
AAGTTTGGTG | 0.986 ± 0.042
AAGTTTGTAG | 1 ± 0.03
AAGTTTTGTT | 0.987 ± 0.023
AATAAAAGGA | 0.997 ± 0.013
AATAAAAGTT | 1.1 ± 0.14
AATAAACAGG | 1.08 ± 0.041

Sequence | switch fluorescence ratio
AATAAAGACG | 0.952 ± 0.025
AATAAAGCGT | 0.983 ± 0.028
AATAAATCAT | 0.992 ± 0.024
AATAAATGTA | 1.04 ± 0.048
AATAACACGT | 1 ± 0.026
AATAACTACC | 1.15 ± 0.032
AATAACTGGT | 1.04 ± 0.028
AATAAGAGGA | 1.02 ± 0.026
AATAAGATTT | 1.02 ± 0.026
AATAAGGCAT | 1.01 ± 0.024
AATAAGTATT | 1.024 ± 0.003
AATAAGTCCT | 1.03 ± 0.038
AATAATATAG | 0.996 ± 0.031
AATAATATTT | 1.01 ± 0.021
AATAATGGGG | 0.981 ± 0.049
AATAATGTGC | 0.987 ± 0.074
AATAATTGAC | 1.099 ± 0.0086
AATACAGAGG | 1.0069 ± 0.00059
AATACCGTTT | 1.05 ± 0.03
AATACTGTCG | 1.01 ± 0.016
AATAGAGTTA | 1.02 ± 0.023
AATAGCAGGA | 1.02 ± 0.02
AATAGCCTTG | 1.02 ± 0.013
